Columns and labels:
Assay in all cases: cell_activity
[1] = biological target: c-Maf (Mus musculus) (UniProt P54843); details: HeLa; +/-12.1
[2] = biological target: MafB (Mus musculus) (UniProt P54841); details: HeLa; +/-10.4
[3] = biological target: MafA (mouse L-Maf) (Mus musculus) (UniProt Q8CF90); details: HeLa; +/-2.8
Sequence of MafA (mouse L-Maf) (Mus musculus) (Q8CF90 whole entry): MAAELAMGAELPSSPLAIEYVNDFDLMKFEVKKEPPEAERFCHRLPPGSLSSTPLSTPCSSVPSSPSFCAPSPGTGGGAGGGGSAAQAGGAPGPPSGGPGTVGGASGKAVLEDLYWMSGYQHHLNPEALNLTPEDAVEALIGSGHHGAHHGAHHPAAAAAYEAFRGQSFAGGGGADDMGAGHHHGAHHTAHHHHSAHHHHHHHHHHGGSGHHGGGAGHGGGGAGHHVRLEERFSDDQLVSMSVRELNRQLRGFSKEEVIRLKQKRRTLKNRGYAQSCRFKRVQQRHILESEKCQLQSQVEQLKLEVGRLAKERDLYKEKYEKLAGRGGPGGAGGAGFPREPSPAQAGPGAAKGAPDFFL

Sequence of MafB (Mus musculus) (P54841 whole entry): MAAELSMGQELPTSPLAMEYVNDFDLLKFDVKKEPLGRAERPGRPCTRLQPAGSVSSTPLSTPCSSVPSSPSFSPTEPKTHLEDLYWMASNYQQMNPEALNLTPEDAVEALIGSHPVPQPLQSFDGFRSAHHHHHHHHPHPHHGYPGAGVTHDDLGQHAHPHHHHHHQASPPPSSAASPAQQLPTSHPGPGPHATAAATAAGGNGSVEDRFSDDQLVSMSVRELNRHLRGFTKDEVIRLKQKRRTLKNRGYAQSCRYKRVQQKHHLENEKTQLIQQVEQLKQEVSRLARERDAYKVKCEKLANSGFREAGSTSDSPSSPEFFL
Sequence of c-Maf (Mus musculus) (P54843 whole entry): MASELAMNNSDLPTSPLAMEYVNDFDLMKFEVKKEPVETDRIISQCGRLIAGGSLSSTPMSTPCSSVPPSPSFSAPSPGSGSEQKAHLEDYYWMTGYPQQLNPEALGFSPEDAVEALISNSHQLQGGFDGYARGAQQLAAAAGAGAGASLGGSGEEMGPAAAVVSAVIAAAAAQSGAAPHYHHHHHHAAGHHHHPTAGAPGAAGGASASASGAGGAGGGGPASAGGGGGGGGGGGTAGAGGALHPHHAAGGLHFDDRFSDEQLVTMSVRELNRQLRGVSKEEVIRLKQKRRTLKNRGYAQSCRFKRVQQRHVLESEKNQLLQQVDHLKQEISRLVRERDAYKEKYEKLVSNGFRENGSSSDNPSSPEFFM

How did the activity (relative luciferase (printed as %)) [1] turn out when “rat insulin II promoter -238/+2 (-238 WT LUC)” was run?
Its activity (relative luciferase (printed as %)) is 28.

And the activity (relative luciferase (printed as %)) [2]?
The activity (relative luciferase (printed as %)) was 23.9.

And the activity (relative luciferase (printed as %)) [3]?
Its activity (relative luciferase (printed as %)) is 13.2.
